Laboratory results: IntAct's records for PubMed 24255178

B1: Serine/threonine-protein kinase 3 (Homo sapiens), Q13188 (parent)
chain: MEQPPAPKSKLKKLSEDSLTKQPEEVFDVLEKLGEGSYGSVFKAIHKESGQVVAIKQVPVESDLQEIIKEISIMQQCDSPYVVKYYGSYFKNTDLWIVMEYCGAGSVSDIIRLRNKTLIEDEIATILKSTLKGLEYLHFMRKIHRDIKAGNILLNTEGHAKLADFGVAGQLTDTMAKRNTVIGTPFWMAPEVIQEIGYNCVADIWSLGITSIEMAEGKPPYADIHPMRAIFMIPTNPPPTFRKPELWSDDFTDFVKKCLVKNPEQRATATQLLQHPFIKNAKPVSILRDLITEAMEIKAKRHEEQQRELEEEEENSDEDELDSHTMVKTSVESVGTMRATSTMSEGAQTMIEHNSTMLESDLGTMVINSEDEEEEDGTMKRNATSPQVQRPSFMDYFDKQDFKNKSHENCNQNMHEPFPMSKNVFPDNWKVPQDGDFDFLKNLSLEELQMRLKALDPMMEREIEELRQRYTAKRQPILDAMDAKKRRQQNF
partner: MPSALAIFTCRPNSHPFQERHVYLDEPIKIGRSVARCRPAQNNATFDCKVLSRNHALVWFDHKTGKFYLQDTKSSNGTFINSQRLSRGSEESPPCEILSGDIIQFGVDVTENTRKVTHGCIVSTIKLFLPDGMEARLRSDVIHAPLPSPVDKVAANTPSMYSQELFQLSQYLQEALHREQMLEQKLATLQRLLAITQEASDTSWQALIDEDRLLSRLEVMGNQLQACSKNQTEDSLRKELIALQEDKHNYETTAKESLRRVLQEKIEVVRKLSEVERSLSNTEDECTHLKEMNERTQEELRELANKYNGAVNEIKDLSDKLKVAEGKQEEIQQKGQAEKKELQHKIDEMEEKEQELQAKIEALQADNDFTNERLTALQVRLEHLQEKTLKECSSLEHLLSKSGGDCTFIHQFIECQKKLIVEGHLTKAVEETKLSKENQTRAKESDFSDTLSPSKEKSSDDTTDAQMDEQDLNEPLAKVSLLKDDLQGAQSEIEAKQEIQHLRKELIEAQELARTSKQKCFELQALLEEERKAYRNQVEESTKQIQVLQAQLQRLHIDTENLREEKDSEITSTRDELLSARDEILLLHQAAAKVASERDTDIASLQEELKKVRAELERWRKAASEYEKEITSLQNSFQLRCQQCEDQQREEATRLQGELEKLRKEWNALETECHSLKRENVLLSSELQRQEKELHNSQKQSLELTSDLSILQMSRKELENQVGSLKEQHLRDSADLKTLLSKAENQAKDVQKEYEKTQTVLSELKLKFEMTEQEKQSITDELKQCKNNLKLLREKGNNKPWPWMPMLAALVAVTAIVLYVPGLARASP
B2: Sarcolemmal membrane-associated protein (Homo sapiens), Q14BN4 (parent)
chain: B1 partner
partner: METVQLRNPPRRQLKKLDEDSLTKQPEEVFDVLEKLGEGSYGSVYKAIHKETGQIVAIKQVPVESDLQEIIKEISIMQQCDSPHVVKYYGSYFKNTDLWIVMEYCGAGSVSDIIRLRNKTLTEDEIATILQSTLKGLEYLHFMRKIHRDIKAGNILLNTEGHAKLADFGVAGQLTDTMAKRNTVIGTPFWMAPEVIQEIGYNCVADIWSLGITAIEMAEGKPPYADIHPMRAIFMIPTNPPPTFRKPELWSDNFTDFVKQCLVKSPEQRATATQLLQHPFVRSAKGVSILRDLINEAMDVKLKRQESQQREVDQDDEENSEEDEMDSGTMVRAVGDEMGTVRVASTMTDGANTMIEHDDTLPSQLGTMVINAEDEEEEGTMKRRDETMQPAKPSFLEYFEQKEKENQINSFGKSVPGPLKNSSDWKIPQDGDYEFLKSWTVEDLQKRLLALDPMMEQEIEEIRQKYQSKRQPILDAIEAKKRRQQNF
B3: Sarcolemmal membrane-associated protein (Homo sapiens), Q14BN4 (parent)
chain: B1 partner
partner: B1 chain

Variants of: B1
Settings: with slmap_human SLMAP, Q14BN4

| effect of a mutation on the interaction | Variant |
| --- | --- |
| decreasing interaction | MEQPPAPKSKLKKLSEDSLTKQPEEVFDVLEKLGEGSYGSVFKAIHKESGQVVAIKQVPVESDLQEIIKEISIMQQCDSPYVVKYYGSYFKNTDLWIVMEYCGAGSVSDIIRLRNKTLIEDEIATILKSTLKGLEYLHFMRKIHRDIKAGNILLNTEGHAKLADFGVAGQLTDTMAKRNAVIGTPFWMAPEVIQEIGYNCVADIWSLGITSIEMAEGKPPYADIHPMRAIFMIPTNPPPTFRKPELWSDDFTDFVKKCLVKNPEQRATATQLLQHPFIKNAKPVSILRDLITEAMEIKAKRHEEQQRELEEEEENSDEDELDSHTMVKTSVESVGTMRATSTMSEGAQTMIEHNSTMLESDLGTMVINSEDEEEEDGTMKRNATSPQVQRPSFMDYFDKQDFKNKSHENCNQNMHEPFPMSKNVFPDNWKVPQDGDFDFLKNLSLEELQMRLKALDPMMEREIEELRQRYTAKRQPILDAMDAKKRRQQNF [T180A] |

Variants of: B2
Settings: with stk4_human STK4, Q13043

| effect of a mutation on the interaction | Variant |
| --- | --- |
| decreasing interaction | H55A |
| decreasing interaction | R32A |

Variants of: B3
Settings: with stk3_human STK3, Q13188

| effect of a mutation on the interaction | Variant |
| --- | --- |
| decreasing interaction | R32A |
| decreasing interaction | H55A |
